Results: patent US20210371519A1 (UNIVERSITY OF CINCINNATI, published 2021)

Target: T1, human FcεRIα (alpha chain of the high affinity IgE receptor FcεRI) (human, UniProt P12319 26-257)
T1 construct: whole, on cells; also called huFcεRIα; hu FcεRIα
T1 sequence (looked up): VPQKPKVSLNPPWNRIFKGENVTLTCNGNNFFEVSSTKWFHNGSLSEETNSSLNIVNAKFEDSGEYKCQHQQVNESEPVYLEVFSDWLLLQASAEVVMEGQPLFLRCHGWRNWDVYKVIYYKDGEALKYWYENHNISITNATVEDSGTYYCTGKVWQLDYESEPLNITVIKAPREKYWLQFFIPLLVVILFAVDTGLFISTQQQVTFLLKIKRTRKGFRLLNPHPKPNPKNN
Test: not described

B1: IE7 anti-huFcεRIα mAb (mouse IgG1, hybridoma ATCC PTA-125115) (antibody, V domains shown)
VH: QVQLQESGGDVVKPGGSLKLSCAASGFTFSFYGMSWVRQTPDKKLEWVATISGGGNYTYYPDSVKGRFTISRDNAMNTLYLQMNSLKSEDTAMYYCVRAYYGNWNSYWGQGTLVTVS
VL: DIVMTQTPSSMYASLGERVTITCKASQDINNYLSWFQQKPGRSPKTLIYRANRLMDGVPSRIRGSGSGQDYSLTISSLEYEDMGIYYCLLYNEFPWMFGGGTKLEIKR
notes: Original hybridoma antibody, mouse IgG1; also called mAb IE7
- binding result: binds
